Molecular target: GST-aPKCt
Test: co-immunoprecipitation from HEK cells transfected with HA-GSK3β, GST-aPKCt and myc-p62; anti-HA IP, anti-GST blot, densitometry; with against without p62

Sequence of Hemagglutinin (HA)-tagged GSK3β (enzyme) (P49841 whole entry): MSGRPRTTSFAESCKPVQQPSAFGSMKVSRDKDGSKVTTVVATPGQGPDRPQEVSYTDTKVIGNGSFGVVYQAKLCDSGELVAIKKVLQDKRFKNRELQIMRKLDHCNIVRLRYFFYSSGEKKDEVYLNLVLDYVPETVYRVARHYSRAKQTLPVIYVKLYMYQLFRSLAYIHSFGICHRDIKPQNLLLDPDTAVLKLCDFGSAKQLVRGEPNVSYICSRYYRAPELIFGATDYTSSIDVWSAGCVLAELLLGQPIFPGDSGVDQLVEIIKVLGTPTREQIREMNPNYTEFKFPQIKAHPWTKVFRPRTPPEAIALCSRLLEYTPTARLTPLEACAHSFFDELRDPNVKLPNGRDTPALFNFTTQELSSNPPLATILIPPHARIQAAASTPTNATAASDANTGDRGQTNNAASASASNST

In the case of “Hemagglutinin (HA)-tagged GSK3β (enzyme)”, the fold enhancement of the interaction in the presence of p62 is reported as 2 fold.
